Literature values, collected in article PMC8776070.

Tests used:
CXCR1 (Homo sapiens) = CXCR1 (Homo sapiens) (UniProt P25024)
CXCR2 (Homo sapiens) = CXCR2 (Homo sapiens) (UniProt P25025)
ACKR1 (Homo sapiens) = ACKR1 (Homo sapiens) (UniProt Q16570)
Sequence of UniProt Q16570 (Q16570 whole entry): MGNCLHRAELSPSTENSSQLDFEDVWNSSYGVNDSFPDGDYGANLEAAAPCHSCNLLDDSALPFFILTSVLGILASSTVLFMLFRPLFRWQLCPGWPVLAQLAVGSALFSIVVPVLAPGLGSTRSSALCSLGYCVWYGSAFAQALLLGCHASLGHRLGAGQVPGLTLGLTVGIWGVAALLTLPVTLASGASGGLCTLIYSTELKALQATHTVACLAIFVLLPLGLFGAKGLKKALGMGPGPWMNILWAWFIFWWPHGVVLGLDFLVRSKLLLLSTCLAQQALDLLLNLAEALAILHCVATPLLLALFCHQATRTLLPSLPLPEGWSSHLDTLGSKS

Sequence of UniProt P25024 (P25024 whole entry): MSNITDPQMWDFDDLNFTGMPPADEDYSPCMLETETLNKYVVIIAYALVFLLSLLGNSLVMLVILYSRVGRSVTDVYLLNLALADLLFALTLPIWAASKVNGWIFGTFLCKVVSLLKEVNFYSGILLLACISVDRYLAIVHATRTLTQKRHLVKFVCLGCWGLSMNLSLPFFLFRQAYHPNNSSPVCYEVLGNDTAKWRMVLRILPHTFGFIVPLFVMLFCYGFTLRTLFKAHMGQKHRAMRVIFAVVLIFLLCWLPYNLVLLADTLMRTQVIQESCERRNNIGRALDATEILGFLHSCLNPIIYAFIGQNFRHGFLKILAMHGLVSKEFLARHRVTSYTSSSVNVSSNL
Sequence of UniProt P25025 (P25025 whole entry): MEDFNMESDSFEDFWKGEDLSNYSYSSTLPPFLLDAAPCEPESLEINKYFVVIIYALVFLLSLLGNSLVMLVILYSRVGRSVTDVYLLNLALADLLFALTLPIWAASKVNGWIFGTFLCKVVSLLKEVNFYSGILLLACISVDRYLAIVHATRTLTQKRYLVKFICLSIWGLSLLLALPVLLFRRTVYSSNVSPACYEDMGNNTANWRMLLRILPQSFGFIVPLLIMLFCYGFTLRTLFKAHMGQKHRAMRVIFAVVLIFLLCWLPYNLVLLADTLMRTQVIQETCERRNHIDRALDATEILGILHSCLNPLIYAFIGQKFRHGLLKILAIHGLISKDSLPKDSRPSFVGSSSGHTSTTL

- Kd (CXCR1 (Homo sapiens)): 300 nM
- Kd (CXCR2 (Homo sapiens)): 3 nM
- Kd (ACKR1 (Homo sapiens)): 1.81 nM
Substance: CXCL1 (from UniProt P09341)
